The source of these data is paper PMC5379764, “Polynucleotide phosphorylase is implicated in homologous recombination and DNA repair in Escherichia coli”.

The data set addresses T1, PNPase wild type (Escherichia coli, UniProt P05055 1-711).
T1 sequence: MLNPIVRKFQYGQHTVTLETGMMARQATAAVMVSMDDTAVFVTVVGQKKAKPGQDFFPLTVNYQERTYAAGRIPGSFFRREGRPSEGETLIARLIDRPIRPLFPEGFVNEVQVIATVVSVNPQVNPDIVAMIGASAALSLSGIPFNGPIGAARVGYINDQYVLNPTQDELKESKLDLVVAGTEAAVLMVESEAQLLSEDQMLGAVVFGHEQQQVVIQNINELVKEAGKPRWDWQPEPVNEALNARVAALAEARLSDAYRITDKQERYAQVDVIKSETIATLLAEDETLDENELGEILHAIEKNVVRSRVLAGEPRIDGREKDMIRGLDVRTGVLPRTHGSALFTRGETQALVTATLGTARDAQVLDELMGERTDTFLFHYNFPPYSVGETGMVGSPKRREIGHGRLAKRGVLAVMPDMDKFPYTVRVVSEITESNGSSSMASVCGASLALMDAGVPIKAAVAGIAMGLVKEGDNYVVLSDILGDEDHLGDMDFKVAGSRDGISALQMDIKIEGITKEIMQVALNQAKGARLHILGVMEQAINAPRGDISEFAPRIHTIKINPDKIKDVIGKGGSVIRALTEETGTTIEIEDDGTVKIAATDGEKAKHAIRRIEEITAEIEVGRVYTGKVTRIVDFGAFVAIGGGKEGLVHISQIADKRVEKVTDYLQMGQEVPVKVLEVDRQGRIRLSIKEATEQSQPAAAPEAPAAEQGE
Put plainly: EMSA; no divalent cation; efficiency similar to RNA01; 50 mM Tris-HCl pH 7.4, 50 mM NaCl, 0.5 mM DTT, 0.025% NP40, 10% glycerol, +/- 2 mM MgCl2 or MnCl2; 50 fmol probe in 10 µl; 20 min at 21 °C; native 5% PAGE at 4. The following applies: protein: recombinant; tags: His-tag; chain copies: 3; label: 5'-32P; single-stranded 20-mer. For orientation: In EMSA bound probe runs differently from free probe, usually more slowly.

Take ACTGGACAAATACTCCGACG (ssDNA) [DNA02]: the binding result is recorded as “binds”.
